Measured values reported in patent CN116265487A (SANYOU BIO INC, dated 2023).
Values joined by “and” are separate entries in the source; they are usually repeats but may differ in a detail not shown here. Equal values may be shown once. Each block holds one binder with its values, some of them ahead of it.

What was measured:
生物素标记的hANG2-Fc蛋白 = target: T1, 生物素标记的hANG2-Fc蛋白 (human, biotin-labelled (sites not given)); assay: FACS blocking of biotin-hANG2-Fc binding to huTie2-HEK293 cells
T1 construct: also called biotin-hANG2-Fc

重组蛋白hANG2-His = target: T2, 重组蛋白hANG2-His (human, UniProt O15123 19-496); assay: ELISA, hANG2-His coated, anti-human-IgG-Fc-HRP detection
T2 construct: Made in Expi293 cells; not shown: C-terminal His tag
T2 sequence: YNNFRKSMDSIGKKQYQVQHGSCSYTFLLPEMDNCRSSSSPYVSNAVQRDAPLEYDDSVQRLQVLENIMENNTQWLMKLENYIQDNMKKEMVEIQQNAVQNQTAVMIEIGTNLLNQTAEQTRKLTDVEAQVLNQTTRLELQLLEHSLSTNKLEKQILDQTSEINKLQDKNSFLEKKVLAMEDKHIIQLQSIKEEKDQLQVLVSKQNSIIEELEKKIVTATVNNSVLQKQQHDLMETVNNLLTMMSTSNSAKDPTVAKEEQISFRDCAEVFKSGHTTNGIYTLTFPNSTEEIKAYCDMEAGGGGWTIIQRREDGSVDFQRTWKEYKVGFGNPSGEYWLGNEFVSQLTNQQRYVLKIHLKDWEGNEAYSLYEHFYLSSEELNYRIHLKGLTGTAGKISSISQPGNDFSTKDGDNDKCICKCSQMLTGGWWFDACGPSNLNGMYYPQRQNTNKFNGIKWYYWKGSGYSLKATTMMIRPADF

hANG1-Fc = hANG1-Fc (human, UniProt Q15389 16-498, limits assumed); assay: ELISA, 2μg/mL hANG1-Fc coated, anti-human Kappa HRP detection
Sequence of hANG1-Fc (Q15389 other isoform, or with tags, fused parts or gaps limits assumed): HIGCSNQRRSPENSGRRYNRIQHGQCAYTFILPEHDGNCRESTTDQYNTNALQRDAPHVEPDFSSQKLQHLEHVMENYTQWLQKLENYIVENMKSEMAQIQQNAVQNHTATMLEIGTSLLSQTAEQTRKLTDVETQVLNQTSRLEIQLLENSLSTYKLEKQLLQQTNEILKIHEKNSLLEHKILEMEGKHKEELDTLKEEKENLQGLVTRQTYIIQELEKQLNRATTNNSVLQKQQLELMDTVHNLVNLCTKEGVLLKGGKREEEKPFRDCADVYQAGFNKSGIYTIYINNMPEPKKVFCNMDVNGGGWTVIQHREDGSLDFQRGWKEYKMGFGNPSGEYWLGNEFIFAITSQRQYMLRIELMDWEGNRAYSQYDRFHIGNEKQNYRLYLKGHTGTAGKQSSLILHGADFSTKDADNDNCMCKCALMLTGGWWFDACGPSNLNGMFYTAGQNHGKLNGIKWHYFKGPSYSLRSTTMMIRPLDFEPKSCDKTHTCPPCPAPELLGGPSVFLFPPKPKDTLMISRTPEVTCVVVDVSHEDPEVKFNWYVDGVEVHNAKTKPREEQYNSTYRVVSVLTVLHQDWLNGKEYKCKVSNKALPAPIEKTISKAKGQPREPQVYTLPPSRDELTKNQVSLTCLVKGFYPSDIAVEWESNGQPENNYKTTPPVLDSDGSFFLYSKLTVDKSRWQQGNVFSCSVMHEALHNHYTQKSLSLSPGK

IC50 (生物素标记的hANG2-Fc蛋白): 0.226 nM and 0.44 nM | binding result (重组蛋白hANG2-His): binds | binding result (hANG1-Fc): no binding
B1: 全人源抗体78A74-7 (antibody, human IgG1, kappa, V domains shown)
VH: QVQLVESGGGLVKPGGSLRLSCAASGFTFSSYSMNWVRQAPGKGLEWVAVISYDGSNKYYADSVKGRFTISRDNSKNTLYLQMNSLRAEDTAVYYCAKATLDGYTAGYYYGMDVWGQGTTVTVSS
VL: EIVLTQSPATLSLSPGERATLSCRASQSVSSYLAWYQQKPGQAPRLLIYDASNRATGIPARFSGSGSGTDFTLTISSLEPEDFAVYYCQLMSNWPPEWTFGQGTKVEIKR
notes: Fully human anti-ANG2 antibody in IgG1 format

binding result (重组蛋白hANG2-His): binds | binding result (hANG1-Fc): no binding
B2: 全人源抗体17 (antibody, human IgG1, kappa, V domains shown)
VH: EVQLVESGGGVVKPGGSLRLSCAASGFTFNKYTINWVRQTPGKGLELVADISSGGDYVNYADSVKGRFTISRDNAKDSVYLLMNGLRAEDTAVYYCARDALTYSNNWLDSWGQGTLVTVSS
VL: DIQLTQSPSFLSASVGDRVTITCRASQGISSYLAWYQQKPGKAPKLLIYAASTLQSGVPSRFSGGGYGTDFTLTISSLQPEDFATYYCQQFESYPLTFGGGTRLEIKR
notes: as for B1
